In paper PMC3414502:

Target: CPM-PH-PLCß2 (N-terminal PH domain of PLCβ2)
Test: other fluorescence titration; unlabelled γ-synuclein added in steps to CPM-labelled protein in solution (2 nM CPM-PLCβ2, also 0.5 nM); increase of CPM intensity; 20 mM Hepes pH 7.2, 160 mM NaCl, 1 mM DTT

Chain of CPM-PH-PLCß2 (N-terminal PH domain of PLCβ2) (Q00722 whole entry, the tested form may be a part): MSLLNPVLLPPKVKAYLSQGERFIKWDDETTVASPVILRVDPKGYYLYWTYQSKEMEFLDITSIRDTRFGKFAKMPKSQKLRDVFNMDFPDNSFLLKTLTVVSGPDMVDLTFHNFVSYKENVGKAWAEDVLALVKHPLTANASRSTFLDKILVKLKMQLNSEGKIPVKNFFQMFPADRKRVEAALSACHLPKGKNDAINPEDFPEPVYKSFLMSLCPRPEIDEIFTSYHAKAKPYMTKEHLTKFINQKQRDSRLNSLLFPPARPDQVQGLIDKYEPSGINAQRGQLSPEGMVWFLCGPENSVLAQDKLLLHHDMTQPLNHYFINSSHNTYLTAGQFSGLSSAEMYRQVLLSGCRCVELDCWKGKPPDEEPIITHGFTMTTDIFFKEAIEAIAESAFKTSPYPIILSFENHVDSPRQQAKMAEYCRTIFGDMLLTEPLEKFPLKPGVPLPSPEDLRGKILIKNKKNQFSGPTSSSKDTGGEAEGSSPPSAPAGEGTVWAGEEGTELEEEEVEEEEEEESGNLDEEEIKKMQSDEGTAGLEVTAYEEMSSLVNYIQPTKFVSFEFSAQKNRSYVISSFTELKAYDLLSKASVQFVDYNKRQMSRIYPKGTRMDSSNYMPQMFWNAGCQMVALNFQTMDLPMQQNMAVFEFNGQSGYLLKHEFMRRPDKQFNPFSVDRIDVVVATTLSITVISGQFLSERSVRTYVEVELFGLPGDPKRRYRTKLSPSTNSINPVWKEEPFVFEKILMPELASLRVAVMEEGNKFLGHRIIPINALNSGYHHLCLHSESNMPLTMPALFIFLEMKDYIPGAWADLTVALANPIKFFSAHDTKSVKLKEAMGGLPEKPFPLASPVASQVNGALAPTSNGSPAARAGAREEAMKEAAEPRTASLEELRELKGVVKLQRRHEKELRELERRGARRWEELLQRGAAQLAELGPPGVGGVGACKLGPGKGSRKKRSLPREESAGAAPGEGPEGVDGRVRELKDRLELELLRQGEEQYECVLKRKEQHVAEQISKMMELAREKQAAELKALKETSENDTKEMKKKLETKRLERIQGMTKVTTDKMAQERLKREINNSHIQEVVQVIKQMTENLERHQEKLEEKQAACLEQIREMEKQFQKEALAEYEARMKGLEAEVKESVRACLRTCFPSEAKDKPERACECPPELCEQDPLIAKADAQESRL
Chain of Human γ-synuclein (O76070 whole entry): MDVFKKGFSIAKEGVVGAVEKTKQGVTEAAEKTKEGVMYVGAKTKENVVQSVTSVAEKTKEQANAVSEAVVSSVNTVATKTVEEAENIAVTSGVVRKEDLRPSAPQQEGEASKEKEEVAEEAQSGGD

- fold weaker affinity than for full length CPM-PLCβ2: > 50 fold
Substance: Human γ-synuclein (from UniProt O76070 1-127) (natural protein)
